The results in this text go back to article PMC9130890.

The target of this assay is autologous SHIV_(1157ipd3N4) gp120 monomer (SHIV_(1157ipd3N4)).

B1: unmutated common ancestor (UCA) of the J038 lineage (antibody, V domains shown)
VH: QLQLQESGPGLVKPSETLSLTCAVSGGSISSNYWSWIRQPPGKGLEWIGRISGSGGSTDYNPSLKSRVTISTDTSKNQFSLKLSSVTAADTAVYYCAREVAEDDYGYYQPYFDYWGQGVLVTVSS
VL: DIQMTQSPSSLSASVGDRVTITCRASQGISSYLAWYQQKPGKAPKLLIYAASSLQSGVPSRFSGSGSGTDFTLTISSLQPEDFATYYCQQYNSLPLTFGGGTKVEIK
Turning to B1, the neutralisation of the autologous tier 2 1157ipd3N4 pseudovirus on TZM-bl cells, IC50 is 4.97 µg mL^−1.
